{"source": "patent US20030165463", "biological_target": "Cre recombinase (Bacteriophage P1?) (UniProt P06956)", "sequence (P06956 whole entry)": "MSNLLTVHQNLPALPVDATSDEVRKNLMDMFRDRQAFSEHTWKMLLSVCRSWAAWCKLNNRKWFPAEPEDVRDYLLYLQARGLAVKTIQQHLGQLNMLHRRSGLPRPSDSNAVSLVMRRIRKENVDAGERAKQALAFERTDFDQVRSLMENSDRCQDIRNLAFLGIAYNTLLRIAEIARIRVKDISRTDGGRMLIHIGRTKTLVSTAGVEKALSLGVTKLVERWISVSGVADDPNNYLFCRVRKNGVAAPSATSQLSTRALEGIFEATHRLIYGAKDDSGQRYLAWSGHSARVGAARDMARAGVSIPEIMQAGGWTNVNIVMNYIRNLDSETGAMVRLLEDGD", "experiment": "cell_activity", "settings": "pCA36 + pBHGloxΔE1,3 in 293Cre4 cells; 15 in 293 cells, homologous recombination background only", "data": [{"substance": "shuttle plasmid pCA36 without loxP", "values": [{"measurement": "activity (total plaques in 6 dishes)", "result": 10}]}]}
